Biological target: Jak2 (UniProt O60674)
Experiment: phosphorylation enrichment, bacterial display (enrichment ratio); higher = better substrate or ligand; peptides without Tyr show the background
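Note: 11-residue human phosphosite peptides and single-mutation variants displayed on the E. coli surface, counted by deep sequencing, each peptide's frequency after selection divided by its frequency in the unselected input library; frequency after pTyr selection over input frequency; kinase dosed for 20-30% of maximal phosphorylation in three min.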

Sequence of Jak2 (O60674 whole entry, looked up): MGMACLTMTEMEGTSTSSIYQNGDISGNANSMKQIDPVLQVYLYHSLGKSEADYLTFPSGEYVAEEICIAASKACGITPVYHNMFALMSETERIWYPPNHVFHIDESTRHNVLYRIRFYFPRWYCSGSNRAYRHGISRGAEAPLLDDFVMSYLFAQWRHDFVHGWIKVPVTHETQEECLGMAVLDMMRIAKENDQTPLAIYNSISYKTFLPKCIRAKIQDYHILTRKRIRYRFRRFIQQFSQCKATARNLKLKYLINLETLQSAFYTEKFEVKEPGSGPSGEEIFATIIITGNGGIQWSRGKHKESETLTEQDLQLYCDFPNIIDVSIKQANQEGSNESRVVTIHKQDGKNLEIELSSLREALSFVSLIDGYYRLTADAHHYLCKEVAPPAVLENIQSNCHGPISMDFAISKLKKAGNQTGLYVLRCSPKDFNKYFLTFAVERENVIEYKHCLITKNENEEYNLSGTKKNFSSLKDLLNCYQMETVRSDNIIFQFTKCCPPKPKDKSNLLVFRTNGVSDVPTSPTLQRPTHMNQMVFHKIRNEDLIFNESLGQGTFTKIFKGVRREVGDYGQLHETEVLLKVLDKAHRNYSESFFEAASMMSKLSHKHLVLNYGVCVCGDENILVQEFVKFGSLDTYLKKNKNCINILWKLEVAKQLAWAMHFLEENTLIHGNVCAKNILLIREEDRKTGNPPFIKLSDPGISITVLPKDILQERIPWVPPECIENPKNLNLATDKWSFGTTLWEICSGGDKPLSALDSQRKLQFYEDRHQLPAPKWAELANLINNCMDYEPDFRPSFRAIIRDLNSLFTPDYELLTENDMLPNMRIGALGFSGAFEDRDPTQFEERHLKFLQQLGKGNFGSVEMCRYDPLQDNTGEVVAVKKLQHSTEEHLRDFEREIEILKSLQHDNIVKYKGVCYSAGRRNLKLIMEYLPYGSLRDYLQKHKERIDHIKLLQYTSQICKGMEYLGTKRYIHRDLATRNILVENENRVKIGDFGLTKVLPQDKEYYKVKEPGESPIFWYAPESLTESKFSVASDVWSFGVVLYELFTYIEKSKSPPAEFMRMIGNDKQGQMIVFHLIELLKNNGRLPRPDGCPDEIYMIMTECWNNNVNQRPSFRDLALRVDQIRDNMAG

Sequence | phosphorylation enrichment
NDQPDYDSVAS [GIT2_Y392] | 1.23
LMVFEYMRHGD [NTRK1_Y591] | 1
TRHDEYLEVTK [MAP1A_Y2217] | 0.726
AEVDTYCRHNF [HLA-DRB1_Y107_A103E_YF] | 0.719
KMKGDYYRYLA [YWHAG_Y130] | 2.55
FKRAVYCIIGR [NUP93_Y391_YF] | 0.772
VPLLEYYRDIF [CDAN1_Y712] | 2.64
DHYNQYEQQKM [CHD7_Y75] | 0.782
YCIDHYLGKEM [G6PD_Y202_R198C] | 0.75
WLQKLYNNFVN [MYO5C_Y526] | 1
ILDEAYVMAIV [EGFR_Y764_S768I] | 1.39
PSQRHYVFFFS [PTEN_Y174_R173H_YF] | 1.92
RLEKEYFDQHF [NPC1_Y394] | 1.44
VILENYGADID [DNAH5_Y596_L591V] | 1.13
KVVQEYERVII [NPHS2_Y131] | 0.801
CEHFSYYGMKA [SLC15A2_Y60_R57H] | 5.02
PSQRPYVYYYS [PTEN_Y174_R173P] | 2.58
GGSDCYGSLRP [MYLK_Y846_R845C] | 0.792
PKAWNYELPAT [PROM1_Y34] | 0.894
ERDFTYDELLN [EIF2S2_Y176_E177D_YF] | 1.46
YSQNIYIQNRN [PKP2_Y631] | 0.59
TLLERYGMIEI [ACSF3_Y355_T358I] | 1.02
LKGQVYILGLE [ASS1_Y359_R363L] | 1.23
AQAGEYGAEAL [HBA1_Y25_H21Q] | 0.767
WIPIQCPIISE [NOG_Y222_Y222C] | 1.12
VEGIGYDFIPT [CBS_Y308] | 0.827
CGTPDNIAPEI [PRKCG_Y521_Y521N] | 0.989
YFRDGHMPRQY [GSS_Y270_Y270H] | 1.03
VLPIDYYFPPQ [AR_Y552] | 6.26

Biological target: EPHB1 (UniProt P54762)
Sequence (P54762 whole entry, looked up): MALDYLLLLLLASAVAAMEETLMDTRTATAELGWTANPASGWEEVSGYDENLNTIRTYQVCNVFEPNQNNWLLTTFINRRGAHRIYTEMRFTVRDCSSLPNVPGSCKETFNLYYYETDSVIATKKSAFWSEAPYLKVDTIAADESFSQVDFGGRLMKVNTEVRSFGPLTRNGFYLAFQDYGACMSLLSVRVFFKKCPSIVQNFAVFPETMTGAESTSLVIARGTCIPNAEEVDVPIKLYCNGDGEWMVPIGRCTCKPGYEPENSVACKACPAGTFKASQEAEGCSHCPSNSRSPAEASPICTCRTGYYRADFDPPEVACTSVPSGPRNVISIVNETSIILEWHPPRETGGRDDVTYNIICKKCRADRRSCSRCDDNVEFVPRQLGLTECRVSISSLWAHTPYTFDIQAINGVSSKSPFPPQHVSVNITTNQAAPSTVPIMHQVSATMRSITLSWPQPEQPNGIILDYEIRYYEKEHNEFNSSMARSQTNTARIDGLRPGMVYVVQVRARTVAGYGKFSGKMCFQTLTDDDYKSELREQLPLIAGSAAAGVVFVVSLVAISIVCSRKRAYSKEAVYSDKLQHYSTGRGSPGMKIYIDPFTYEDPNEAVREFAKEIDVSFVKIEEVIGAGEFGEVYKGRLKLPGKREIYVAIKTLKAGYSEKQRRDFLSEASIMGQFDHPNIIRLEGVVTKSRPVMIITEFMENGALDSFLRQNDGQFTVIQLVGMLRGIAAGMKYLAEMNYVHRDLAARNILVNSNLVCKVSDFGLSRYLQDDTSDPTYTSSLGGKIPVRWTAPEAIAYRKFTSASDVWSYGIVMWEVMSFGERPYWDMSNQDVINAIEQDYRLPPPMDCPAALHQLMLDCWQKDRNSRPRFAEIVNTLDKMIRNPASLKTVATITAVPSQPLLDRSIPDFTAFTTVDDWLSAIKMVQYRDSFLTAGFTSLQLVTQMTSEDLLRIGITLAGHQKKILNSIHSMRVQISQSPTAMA
Experiment: as above

Sequence | phosphorylation enrichment
NDQPDYDSVAS [GIT2_Y392] | 0.63
LMVFEYMRHGD [NTRK1_Y591] | 0.646
TRHDEYLEVTK [MAP1A_Y2217] | 0.464
AEVDTYCRHNF [HLA-DRB1_Y107_A103E_YF] | 0.594
KMKGDYYRYLA [YWHAG_Y130] | 1.45
FKRAVYCIIGR [NUP93_Y391_YF] | 0.576
VPLLEYYRDIF [CDAN1_Y712] | 0.564
DHYNQYEQQKM [CHD7_Y75] | 0.444
YCIDHYLGKEM [G6PD_Y202_R198C] | 0.499
WLQKLYNNFVN [MYO5C_Y526] | 0.528
ILDEAYVMAIV [EGFR_Y764_S768I] | 0.62
PSQRHYVFFFS [PTEN_Y174_R173H_YF] | 0.926
RLEKEYFDQHF [NPC1_Y394] | 0.717
VILENYGADID [DNAH5_Y596_L591V] | 0.555
KVVQEYERVII [NPHS2_Y131] | 3.17
CEHFSYYGMKA [SLC15A2_Y60_R57H] | 0.52
PSQRPYVYYYS [PTEN_Y174_R173P] | 0.652
GGSDCYGSLRP [MYLK_Y846_R845C] | 0.466
PKAWNYELPAT [PROM1_Y34] | 0.761
ERDFTYDELLN [EIF2S2_Y176_E177D_YF] | 0.616
YSQNIYIQNRN [PKP2_Y631] | 0.424
TLLERYGMIEI [ACSF3_Y355_T358I] | 0.606
LKGQVYILGLE [ASS1_Y359_R363L] | 0.971
AQAGEYGAEAL [HBA1_Y25_H21Q] | 0.609
WIPIQCPIISE [NOG_Y222_Y222C] | 0.818
VEGIGYDFIPT [CBS_Y308] | 0.579
CGTPDNIAPEI [PRKCG_Y521_Y521N] | 0.72
YFRDGHMPRQY [GSS_Y270_Y270H] | 0.458
VLPIDYYFPPQ [AR_Y552] | 3.48

Biological target: Fes (UniProt P07332)
Sequence (P07332 whole entry, looked up): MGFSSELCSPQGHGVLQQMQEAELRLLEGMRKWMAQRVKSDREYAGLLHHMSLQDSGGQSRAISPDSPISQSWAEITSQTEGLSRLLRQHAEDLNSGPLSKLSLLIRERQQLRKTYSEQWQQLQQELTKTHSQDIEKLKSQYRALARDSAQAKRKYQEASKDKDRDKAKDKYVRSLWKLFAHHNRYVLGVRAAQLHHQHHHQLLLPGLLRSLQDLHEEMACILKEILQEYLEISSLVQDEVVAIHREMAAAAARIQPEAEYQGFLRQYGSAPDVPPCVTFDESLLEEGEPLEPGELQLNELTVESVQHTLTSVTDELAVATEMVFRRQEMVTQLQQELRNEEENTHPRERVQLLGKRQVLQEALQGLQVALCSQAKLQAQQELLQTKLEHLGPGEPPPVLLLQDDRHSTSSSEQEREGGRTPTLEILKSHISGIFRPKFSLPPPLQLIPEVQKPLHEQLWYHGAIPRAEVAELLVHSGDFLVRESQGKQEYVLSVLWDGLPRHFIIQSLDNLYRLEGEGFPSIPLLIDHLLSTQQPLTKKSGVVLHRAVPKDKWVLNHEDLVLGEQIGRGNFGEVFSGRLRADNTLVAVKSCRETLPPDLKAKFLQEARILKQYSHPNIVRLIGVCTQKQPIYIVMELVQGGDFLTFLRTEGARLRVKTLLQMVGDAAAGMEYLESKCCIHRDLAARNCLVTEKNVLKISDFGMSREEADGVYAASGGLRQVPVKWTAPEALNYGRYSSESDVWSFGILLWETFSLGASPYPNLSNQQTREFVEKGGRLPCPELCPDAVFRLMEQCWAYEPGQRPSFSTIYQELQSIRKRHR
Experiment: as above

Sequence | phosphorylation enrichment
NDQPDYDSVAS [GIT2_Y392] | 1.19
LMVFEYMRHGD [NTRK1_Y591] | 1.08
TRHDEYLEVTK [MAP1A_Y2217] | 1.03
AEVDTYCRHNF [HLA-DRB1_Y107_A103E_YF] | 0.935
KMKGDYYRYLA [YWHAG_Y130] | 0.747
FKRAVYCIIGR [NUP93_Y391_YF] | 0.9
VPLLEYYRDIF [CDAN1_Y712] | 1.24
DHYNQYEQQKM [CHD7_Y75] | 0.728
YCIDHYLGKEM [G6PD_Y202_R198C] | 0.827
WLQKLYNNFVN [MYO5C_Y526] | 1.4
ILDEAYVMAIV [EGFR_Y764_S768I] | 1.35
PSQRHYVFFFS [PTEN_Y174_R173H_YF] | 2.72
RLEKEYFDQHF [NPC1_Y394] | 1.29
VILENYGADID [DNAH5_Y596_L591V] | 1.11
KVVQEYERVII [NPHS2_Y131] | 0.956
CEHFSYYGMKA [SLC15A2_Y60_R57H] | 0.933
PSQRPYVYYYS [PTEN_Y174_R173P] | 1.09
GGSDCYGSLRP [MYLK_Y846_R845C] | 0.887
PKAWNYELPAT [PROM1_Y34] | 0.972
ERDFTYDELLN [EIF2S2_Y176_E177D_YF] | 1.33
YSQNIYIQNRN [PKP2_Y631] | 0.706
TLLERYGMIEI [ACSF3_Y355_T358I] | 1.06
LKGQVYILGLE [ASS1_Y359_R363L] | 1.99
AQAGEYGAEAL [HBA1_Y25_H21Q] | 0.96
WIPIQCPIISE [NOG_Y222_Y222C] | 1.41
VEGIGYDFIPT [CBS_Y308] | 1.12
CGTPDNIAPEI [PRKCG_Y521_Y521N] | 1.49
YFRDGHMPRQY [GSS_Y270_Y270H] | 0.584
VLPIDYYFPPQ [AR_Y552] | 1.08

Test system: c-Src
Experiment: as above

Sequence | phosphorylation enrichment
NDQPDYDSVAS [GIT2_Y392] | 0.992
LMVFEYMRHGD [NTRK1_Y591] | 0.34
TRHDEYLEVTK [MAP1A_Y2217] | 0.401
AEVDTYCRHNF [HLA-DRB1_Y107_A103E_YF] | 0.509
KMKGDYYRYLA [YWHAG_Y130] | 0.73
FKRAVYCIIGR [NUP93_Y391_YF] | 0.809
VPLLEYYRDIF [CDAN1_Y712] | 0.553
DHYNQYEQQKM [CHD7_Y75] | 0.478
YCIDHYLGKEM [G6PD_Y202_R198C] | 0.606
WLQKLYNNFVN [MYO5C_Y526] | 0.501
ILDEAYVMAIV [EGFR_Y764_S768I] | 0.829
PSQRHYVFFFS [PTEN_Y174_R173H_YF] | 0.787
RLEKEYFDQHF [NPC1_Y394] | 0.571
VILENYGADID [DNAH5_Y596_L591V] | 0.5
KVVQEYERVII [NPHS2_Y131] | 0.457
CEHFSYYGMKA [SLC15A2_Y60_R57H] | 2.37
PSQRPYVYYYS [PTEN_Y174_R173P] | 2.78
GGSDCYGSLRP [MYLK_Y846_R845C] | 2.75
PKAWNYELPAT [PROM1_Y34] | 0.414
ERDFTYDELLN [EIF2S2_Y176_E177D_YF] | 0.796
YSQNIYIQNRN [PKP2_Y631] | 0.528
TLLERYGMIEI [ACSF3_Y355_T358I] | 0.472
LKGQVYILGLE [ASS1_Y359_R363L] | 0.633
AQAGEYGAEAL [HBA1_Y25_H21Q] | 0.33
WIPIQCPIISE [NOG_Y222_Y222C] | 0.433
VEGIGYDFIPT [CBS_Y308] | 0.539
CGTPDNIAPEI [PRKCG_Y521_Y521N] | 0.458
YFRDGHMPRQY [GSS_Y270_Y270H] | 0.401
VLPIDYYFPPQ [AR_Y552] | 1.28

From the supplement of paper PMC10065799, “High-throughput profiling of sequence recognition by tyrosine kinases and SH2 domains using bacterial peptide display” (eLife, 2023)
